Measured values published in article PMC4692482, “Structure and Stability of the Dimeric Triosephosphate Isomerase from the Thermophilic Archaeon Thermoplasma acidophilum” (PLoS ONE, 2015).

Target: the molecule itself
Assay: AUC; equilibrium sedimentation, 20 mM Tris-HCl pH 7.5, 200 mM NaCl, 20°C, 20,000 and 26,000 rpm, 12.6, 16.8 and 21.0 uM protein; data fit a homogeneous dimer model; reversible monomer-dimer and monomer-trimer models rejected

B1: triosephosphate isomerase from Thermoplasma acidophilum (enzyme, UniProt Q9HLB6 1-216, looked up)
chain: MYTAIVNLKTYREATGANFTRFMEKFEPVQGKFELIFSPSLLDLEKAAKCGKFRFFAQHVDAEPYGAYTGHVPMDMMIDLGITGSILNHSERRLPRDTIINTLKKASKLDFTIVLCVENAEEAKYFREYEPDFIAYEPRDLIGGDVSVSTAKPEIIEDIVKIYEGTGTSVLVGAGIKTGEDVRRSIGLGARGILVASGVVKSADPTKSLNSLIELK
notes: Cloned into pET-28a(+) with a C-terminal His6-tag; no tag removal is described; The monomer mass used for AUC is 24,671 daltons; The crystals with glycerol-3-phosphate (G3P) hold the same protein; also called TaTPI; apo-TaTPI; source: E. coli Rosetta 2(DE3)pLysS, purified (heat step 60°C, HiTrap Chelating, SEC, anion exchange, SEC)
  stoichiometry N: 2
